Assay [1] addresses HLA-A*02:01. As to the kind of experiment: IEDB peptide-MHC binding, cellular MHC/competitive/fluorescence; ≥ and ≤ were set here for values at or beyond the usual limits of such assays.
In assay [2] the target is HLA-A*02:02. The description is as above.
The target of assay [3] is HLA-A*02:06. Description: IEDB peptide-MHC binding, purified MHC/competitive/radioactivity; ≥ and ≤ were set here for values at or beyond the usual limits of such assays.
The target in a further assay is HLA-A*02:03. Described as above.
The target of assay [4] is HLA-A*68:02. The assay is described as above.
Assay [5] deals with HLA-A*02:01. Described as above.
Assay [6] addresses HLA-A*02:06. As to the kind of experiment: IEDB peptide-MHC binding, cellular MHC/competitive/fluorescence; ≥ and ≤ were set here for values at or beyond the usual limits of such assays.
In assay [7] the target is HLA-A*68:02. The description is as above.
Assay [8] has as its target HLA-A*02:02. Description: IEDB peptide-MHC binding, purified MHC/competitive/radioactivity; ≥ and ≤ were set here for values at or beyond the usual limits of such assays.
The mark [9] stands for this setting: source organism: Vaccinia virus WR.
[10] abbreviates: source organism: Mammarenavirus lassaense.
Setting [11] is: source organism: Influenza A virus.

A word on the IC50: it is the concentration needed to halve the response being measured.

Where only a bound is given, the exact number is not on record here.

On to MAAAKTPVIV, for which the IC50 with HLA-A*02:01 [1] (setting [9]) is 8.47 µM; with HLA-A*02:02 [2] (setting [9]), 6.01 µM; with HLA-A*02:06 [3] (setting [9]), 3.63 µM; with HLA-A*02:03 (setting [9]), 0.156 µM; with HLA-A*68:02 [4] (setting [9]), 1.21 µM.
For MSIQLINKAV, the IC50 was found to be 7.21 µM in the assay with HLA-A*02:01 [1] (setting [10]); 11.4 µM in the assay with HLA-A*02:02 [2] (setting [10]); 0.619 µM with HLA-A*02:06 [3] (setting [10]); 1.8 µM with HLA-A*02:03 (setting [10]); 0.011 µM in the assay with HLA-A*68:02 [4] (setting [10]).
With NIYRLFTRCA, the IC50 with HLA-A*02:02 [2] (setting [9]) came to 9.89 µM; with HLA-A*02:06 [3] (setting [9]) it was 0.023 µM; with HLA-A*02:03 (setting [9]) it was 0.138 µM; with HLA-A*68:02 [4] (setting [9]), 0.25 µM; in the assay with HLA-A*02:01 [5] (setting [9]), 0.81 µM.
For the sequence NTFVNFNSV, the IC50 with HLA-A*02:02 [2] (setting [9]) was 5.02 µM; in the assay with HLA-A*02:06 [3] (setting [9]) it was 0.00035 µM; with HLA-A*02:03 (setting [9]), 0.1 µM; with HLA-A*68:02 [4] (setting [9]) it was 0.0058 µM.
In the case of NVMGMIGI, the half-maximal inhibitory concentration (IC50) in the assay with HLA-A*02:01 [1] (setting [11]) worked out at 14.5 µM; with HLA-A*02:02 [2] (setting [11]), 5.92 µM; in the assay with HLA-A*02:06 [3] (setting [11]) it was 2.06 µM; with HLA-A*02:03 (setting [11]), 4.81 µM; in the assay with HLA-A*68:02 [4] (setting [11]) it was 0.187 µM.
Turning to NVTYNIKPV, the IC50 was found to be 6.36 µM in the assay with HLA-A*02:01 [1] (setting [9]); 22.8 µM in the assay with HLA-A*02:02 [2] (setting [9]); 0.855 µM in the assay with HLA-A*02:06 [3] (setting [9]); 0.153 µM in the assay with HLA-A*02:03 (setting [9]); 0.376 µM with HLA-A*68:02 [4] (setting [9]).
As to RTIDAINKCV, the IC50 in the assay with HLA-A*02:01 [1] (setting [9]) came to 25 µM; in the assay with HLA-A*02:02 [2] (setting [9]) it was 10.8 µM; with HLA-A*02:06 [3] (setting [9]) it was 0.341 µM; in the assay with HLA-A*02:03 (setting [9]), 0.334 µM; with HLA-A*68:02 [4] (setting [9]), 0.289 µM.
For the sequence SASDMQKFTI, the IC50 was 13.5 µM with HLA-A*02:01 [1] (setting [9]); 10.8 µM with HLA-A*02:02 [2] (setting [9]); 4.25 µM in the assay with HLA-A*02:06 [3] (setting [9]); 1.22 µM in the assay with HLA-A*02:03 (setting [9]); 0.487 µM with HLA-A*68:02 [4] (setting [9]).
As to SVGTGILFM, the IC50 with HLA-A*02:06 [6] (setting [9]) was 20.7 µM; with HLA-A*68:02 [7] (setting [9]), 57.4 µM; with HLA-A*02:01 [1] (setting [9]) it was 5.15 µM; with HLA-A*02:03 (setting [9]) it was 2.25 µM; with HLA-A*02:02 [8] (setting [9]), 1.09 µM.
On to SVQLSNNKYV, for which the IC50 in the assay with HLA-A*02:06 [6] (setting [9]) was 8.83 µM; in the assay with HLA-A*68:02 [7] (setting [9]) it was 11.3 µM; with HLA-A*02:01 [1] (setting [9]) it was 55 µM; in the assay with HLA-A*02:03 (setting [9]), 0.82 µM; in the assay with HLA-A*02:02 [8] (setting [9]), 1.22 µM.
As for TISWMMKLGI, the IC50 with HLA-A*02:02 [2] (setting [9]) was found to be 7.84 µM; with HLA-A*02:06 [3] (setting [9]), 2.78 µM; in the assay with HLA-A*02:03 (setting [9]), 0.972 µM; with HLA-A*68:02 [4] (setting [9]) it was 1.48 µM; with HLA-A*02:01 [5] (setting [9]), 4.57 µM.
Turning to TLLNETAKVI, the IC50 with HLA-A*02:06 [6] (setting [9]) turned out to be 8.54 µM; with HLA-A*68:02 [7] (setting [9]), 6.34 µM; with HLA-A*02:01 [1] (setting [9]), 16.9 µM; with HLA-A*02:03 (setting [9]), 2.13 µM; with HLA-A*02:02 [8] (setting [9]) it was 2.86 µM.
In the same order, the values of TLNEYKQLYT are no less than 70 µM, no less than 70 µM, 11.5 µM, 0.773 µM and 0.144 µM.
Consider TTQIIKLLPFA, for which the IC50 was determined as 11.6 µM with HLA-A*02:06 [6] (setting [11]); 8.22 µM with HLA-A*68:02 [7] (setting [11]); 5.95 µM in the assay with HLA-A*02:01 [1] (setting [11]); 3.43 µM with HLA-A*02:03 (setting [11]); 2.19 µM in the assay with HLA-A*02:02 [8] (setting [11]).
With VADLSARNKL, the IC50 worked out at 35.9 µM with HLA-A*02:06 [6] (setting [9]); 7.04 µM with HLA-A*68:02 [7] (setting [9]); 23 µM in the assay with HLA-A*02:01 [1] (setting [9]); 2.16 µM with HLA-A*02:03 (setting [9]); 1.17 µM in the assay with HLA-A*02:02 [8] (setting [9]).
Regarding WLTPFEKEFT, the IC50 was 30.8 µM in the assay with HLA-A*02:06 [6] (setting [9]); no less than 70 µM with HLA-A*68:02 [7] (setting [9]); 15.7 µM with HLA-A*02:01 [1] (setting [9]); 1.55 µM with HLA-A*02:03 (setting [9]); 2.37 µM in the assay with HLA-A*02:02 [8] (setting [9]).
Turning to YIENTNQGNI, the IC50 was found to be 6.2 µM with HLA-A*02:06 [6] (setting [9]); 42 µM with HLA-A*68:02 [7] (setting [9]); 34.5 µM with HLA-A*02:01 [1] (setting [9]); 0.582 µM in the assay with HLA-A*02:03 (setting [9]); 1.22 µM with HLA-A*02:02 [8] (setting [9]).
In the case of YLVQQESSFV, the IC50 worked out at 12.7 µM with HLA-A*02:02 [2] (source organism: SARS-CoV1); 0.386 µM in the assay with HLA-A*02:06 [3] (source organism: SARS-CoV1); 0.017 µM with HLA-A*02:03 (source organism: SARS-CoV1); 3.41 µM in the assay with HLA-A*68:02 [4] (source organism: SARS-CoV1); 0.076 µM with HLA-A*02:01 [5] (source organism: SARS-CoV1).

The values above are taken from the Immune Epitope Database (IEDB).
